Article PMC6764986 (2019)
Where no end group is shown, it is not given here.

T1: ALFA-tagged target immobilized for SPR (TST-NEDD8-ALFA or GFP-ALFA) (synthetic construct, not fully specified)
T1 chain: SRLEEELRRRLTE


Legend:
NbALFAPE = experiment: SPR; ligand TST-NEDD8-ALFA
[1] = biological target: T1, ALFA-tagged target immobilized for SPR …; experiment: SPR; ligand GFP-ALFA

Binder | Kd (NbALFAPE) [nM] | koff (NbALFAPE) [s⁻¹] | koff [1] [s⁻¹]
SRLEEELRRRLTE (other) [ALFA-tagged target immobilized for SPR (TST-NEDD8-ALFA or GFP-ALFA)] | 11 | 0.0029 | 
NbALFA (non-tagged) (VHH) VHH: EVQLQESGGGLVQPGGSLRLSCTASGVTISALNAMAMGWYRQAPGERRVMVAAVSERGNAMYRESVQGRFTVTRDFTNKMVSLQMDNLKPEDTAVYYCHVLEDRVDSFHDYWGQGTQVTVSS |  |  | 9.4e-06
